Paper PMC8617272

Biological target: AdeB from Acinetobacter baumannii (RND transporter subunit of the AdeABC efflux pump) (Acinetobacter baumannii AYE)
Assay: native gel or EMSA + other: negative stain electron microscopy; AdeB reconstituted into Salipro Nanodiscs

## AdeB from Acinetobacter baumannii (RND transporter subunit of the AdeABC efflux pump) (natural protein)
  stoichiometry N: 3
